Measurements taken from patent US20140056878A1 (ANAPTYSBIO, published 2014).

Tests used:
[1] = target: complement protein C5 (UniProt P01031 19-673; P01031 678-1676); test: cell-based or functional assay
[2] = target: T1, C5-C345C (Homo sapiens (Human), UniProt P01031 1530-1676); test: BIACORE screening
T1 construct: C-terminal 147 amino acid residues of the 1648 residue C5 protein; A Myc-tagged or Dylight-650-labelled form was used for FACS selection; In the BIACORE analyses it is named only 'C5-C345C' analyte, and no tag is stated; also called C345C domain of complement C5 protein; C5 domain C5-C345C
T1 sequence (P01031 1530-1676 limits assumed): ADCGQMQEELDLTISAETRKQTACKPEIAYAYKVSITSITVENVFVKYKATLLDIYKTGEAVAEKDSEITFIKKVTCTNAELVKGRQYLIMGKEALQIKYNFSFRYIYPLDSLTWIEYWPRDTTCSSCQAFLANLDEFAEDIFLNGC

Chain of complement protein C5 (P01031 19-673 limits assumed, chain 1 of 2): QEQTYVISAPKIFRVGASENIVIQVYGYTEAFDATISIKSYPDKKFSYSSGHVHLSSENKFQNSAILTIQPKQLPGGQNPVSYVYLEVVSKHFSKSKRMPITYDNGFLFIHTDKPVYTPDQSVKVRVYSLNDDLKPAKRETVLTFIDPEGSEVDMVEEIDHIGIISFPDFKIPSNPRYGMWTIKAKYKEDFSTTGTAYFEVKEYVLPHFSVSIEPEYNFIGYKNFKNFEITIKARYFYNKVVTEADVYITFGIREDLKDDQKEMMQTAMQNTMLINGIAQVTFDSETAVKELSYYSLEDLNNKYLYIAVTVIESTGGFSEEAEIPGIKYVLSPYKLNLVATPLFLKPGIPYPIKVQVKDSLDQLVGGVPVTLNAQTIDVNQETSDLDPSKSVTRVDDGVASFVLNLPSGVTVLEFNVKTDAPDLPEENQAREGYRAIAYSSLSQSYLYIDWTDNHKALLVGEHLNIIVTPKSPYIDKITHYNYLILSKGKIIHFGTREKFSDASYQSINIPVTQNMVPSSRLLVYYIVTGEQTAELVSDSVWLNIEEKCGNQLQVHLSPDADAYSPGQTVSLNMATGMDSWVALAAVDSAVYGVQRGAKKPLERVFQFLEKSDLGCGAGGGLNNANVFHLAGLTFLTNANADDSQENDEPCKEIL
Chain of complement protein C5 (P01031 678-1676 limits assumed, chain 2 of 2): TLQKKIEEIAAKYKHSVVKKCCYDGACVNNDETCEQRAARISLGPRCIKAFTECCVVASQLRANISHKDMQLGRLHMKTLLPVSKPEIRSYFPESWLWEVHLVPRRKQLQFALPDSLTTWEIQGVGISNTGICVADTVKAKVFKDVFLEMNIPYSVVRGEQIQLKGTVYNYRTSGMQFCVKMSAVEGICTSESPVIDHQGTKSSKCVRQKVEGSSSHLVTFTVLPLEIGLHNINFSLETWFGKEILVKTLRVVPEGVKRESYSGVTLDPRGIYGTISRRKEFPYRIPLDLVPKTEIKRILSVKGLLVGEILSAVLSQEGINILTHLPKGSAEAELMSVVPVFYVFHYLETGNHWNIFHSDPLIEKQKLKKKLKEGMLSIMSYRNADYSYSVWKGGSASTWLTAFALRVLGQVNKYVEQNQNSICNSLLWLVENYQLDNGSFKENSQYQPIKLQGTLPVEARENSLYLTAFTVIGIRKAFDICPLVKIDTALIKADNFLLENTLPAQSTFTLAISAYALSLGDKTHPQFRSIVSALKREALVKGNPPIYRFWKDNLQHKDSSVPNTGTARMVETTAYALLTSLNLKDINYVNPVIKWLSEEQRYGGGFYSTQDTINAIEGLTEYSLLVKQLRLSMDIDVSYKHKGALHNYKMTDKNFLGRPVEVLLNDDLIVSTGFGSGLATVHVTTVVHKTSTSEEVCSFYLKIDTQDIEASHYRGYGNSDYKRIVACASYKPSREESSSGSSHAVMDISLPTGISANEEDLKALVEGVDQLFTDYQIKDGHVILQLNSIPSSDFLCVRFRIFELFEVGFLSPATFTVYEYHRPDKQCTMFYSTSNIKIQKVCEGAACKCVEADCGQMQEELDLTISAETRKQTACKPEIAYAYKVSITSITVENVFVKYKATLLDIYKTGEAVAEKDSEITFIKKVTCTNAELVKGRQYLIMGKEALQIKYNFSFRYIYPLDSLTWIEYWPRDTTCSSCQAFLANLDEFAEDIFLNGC

B1: APE1142 (antibody, IgG1, V domains shown)
VH: EVQLLESGGGLVQPGGSLRLSCAASGFTFSSYAMTWVRQAPGKGLEWVSVISGSGSTYYADSVKGRFTISRDNSKNTLYLQMNSLRAEDTAVYYCARRGLRYNYFDYWGQGTTLTVSS
VL: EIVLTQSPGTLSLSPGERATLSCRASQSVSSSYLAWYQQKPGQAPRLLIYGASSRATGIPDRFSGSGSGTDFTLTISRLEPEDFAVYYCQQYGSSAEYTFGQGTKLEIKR
With B1 the “inhibition of hemolysis of antibody-coated sheep erythrocytes (classical complement pathway, 1% normal human serum)” value [1] was 1 µM.

B2: APE1224 (antibody, V domains shown)
VH: EVQLLESGGGLVQPGGSLRLSCAASGFTFSSYAMTWVRQAPGKGLEWVSAISGSGSTYYADSVKGRFTISRDNSKNTLYLQMNSLRAEDTAVYYCARRGLRYNYFDYWGQGTTLTVSS
VL: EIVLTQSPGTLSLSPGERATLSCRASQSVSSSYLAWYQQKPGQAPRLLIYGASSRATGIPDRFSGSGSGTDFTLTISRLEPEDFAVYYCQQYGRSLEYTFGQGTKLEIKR
For B2, the Kd [2] was 0.2 nM, the “fold improvement in KD over APE777” value [2] was 1000 fold and the “inhibition of hemolysis of antibody-coated sheep erythrocytes (classical complement pathway, 1% normal human serum)” value [1] was 1 µM.
